Experimental data taken from PMC4384738.

Molecular target: WISp39 (UniProt Q9UIM3)
Assay: anti-GFP co-IP, Western blot
Conditions: reference: wild type; sites S2

binding against the reference: lost
Substance: Coronin 1B (from UniProt Q9BR76) S2A
